This assay concerns the target T1, PfCSP junctional peptide 21 (Plasmodium falciparum, strain not …, also: biotinylated, position not given here).
T1 chain: NPDPNANPNVDPNAN

Residue numbers refer to the chain shown, from its start. Ends that are not written are not given here.

B1: Run1_Seq1 (antibody, V domains shown)
VH: QVQLVQSGTEVKKPGASVKVSCKASGYTFTSYAIHWVRQAPGQRLEWMGWIKVGNGNTRYSQKFQGRVTITRDTSASTAYMELSSLRSEDTAVYYCALLTVLTADDAFDFWGQGTMVTVSS
VL: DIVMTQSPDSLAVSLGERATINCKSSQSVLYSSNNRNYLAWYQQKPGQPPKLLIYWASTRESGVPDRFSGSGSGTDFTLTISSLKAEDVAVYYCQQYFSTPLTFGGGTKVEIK
For B1, the binding result is listed as “binds”.

B2: Run2_Seq1 (antibody, V domains shown)
VH: B1 VH with T9A, V53A, I70L, S84N, L102V, A104P, A107V, F110I
VL: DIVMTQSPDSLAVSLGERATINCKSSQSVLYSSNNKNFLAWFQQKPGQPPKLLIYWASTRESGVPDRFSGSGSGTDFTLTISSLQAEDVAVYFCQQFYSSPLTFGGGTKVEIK
For the molecule B2, the binding result is “binds”.

B3: Run4_Seq1 (antibody, V domains shown)
VH: B1 VH with V53A, A79V, L102I, A104P, F110V
VL: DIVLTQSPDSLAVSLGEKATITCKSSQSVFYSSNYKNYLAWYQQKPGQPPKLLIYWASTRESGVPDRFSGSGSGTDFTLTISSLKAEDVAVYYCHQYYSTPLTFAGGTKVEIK
In the case of B3, the binding result was “binds”.

B4: Run5_Seq2 (antibody, V domains shown)
VH: B1 VH with T9A, V53A, V68I, L102I, A104P, D106Y, F110I
VL: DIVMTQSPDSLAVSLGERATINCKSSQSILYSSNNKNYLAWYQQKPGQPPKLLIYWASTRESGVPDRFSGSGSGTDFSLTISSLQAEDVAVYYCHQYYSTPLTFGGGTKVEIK
Consider B4, for which the binding result was “binds”.

B5: Run5_Seq1 (antibody, V domains shown)
VH: B1 VH with T9A, V53A, N55K, V68I, A79V, S84N, L102I, A104P, D106Y, F110I
VL: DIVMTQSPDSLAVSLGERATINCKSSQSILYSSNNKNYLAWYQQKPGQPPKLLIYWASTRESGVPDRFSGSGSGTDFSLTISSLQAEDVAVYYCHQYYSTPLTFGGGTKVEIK
Consider B5, for which the binding result was “binds”.

B6: Run7_Seq1 (antibody, V domains shown)
VH: B1 VH with T9A, S31K, I34M, M48L, V53A, K63R, G66D, L102I, A104P, F110I
VL: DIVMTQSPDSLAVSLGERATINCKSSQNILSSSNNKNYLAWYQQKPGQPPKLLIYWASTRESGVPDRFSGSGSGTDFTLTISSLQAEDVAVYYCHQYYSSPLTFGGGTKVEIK
For the molecule B6, the binding result is “binds”.

B7: Run2_Seq2 (antibody, V domains shown)
VH: B1 VH with T9A, S31N, V53A, G66D, I70L, Y80F, L102V, A104P, F110I, M116L
VL: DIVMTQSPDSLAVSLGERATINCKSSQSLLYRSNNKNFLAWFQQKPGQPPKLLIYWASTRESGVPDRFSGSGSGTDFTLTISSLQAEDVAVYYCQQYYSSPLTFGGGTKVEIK
Turning to B7, the binding result is listed as “binds”.

B8: Run1_Seq2 (antibody, V domains shown)
VH: B1 VH with S77N, A104P
VL: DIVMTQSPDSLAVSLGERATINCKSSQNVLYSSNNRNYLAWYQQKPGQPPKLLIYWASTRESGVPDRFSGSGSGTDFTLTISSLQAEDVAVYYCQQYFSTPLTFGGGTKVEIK
With B8, the binding result is listed as “binds”.

B9: Run3_Seq1 (antibody, V domains shown)
VH: B1 VH with T9A, K12R, S31T, V53A, G54D, S75F, L102V, A104P, A107T, F110I
VL: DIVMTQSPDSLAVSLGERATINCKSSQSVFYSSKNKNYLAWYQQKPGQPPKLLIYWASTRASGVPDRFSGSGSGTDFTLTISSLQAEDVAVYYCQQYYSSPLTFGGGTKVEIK
Take B9: the binding result was “binds”.

B10: Run4_Seq2 (antibody, V domains shown)
VH: B1 VH with I34V, V53A, A79V, L102I, A104P, F110V
VL: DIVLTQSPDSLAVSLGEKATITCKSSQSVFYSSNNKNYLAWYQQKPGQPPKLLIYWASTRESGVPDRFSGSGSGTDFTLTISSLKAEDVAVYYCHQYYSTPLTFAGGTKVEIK
In the case of B10, the binding result is reported as “binds”.

B11: Run7_Seq2 (antibody, V domains shown)
VH: B1 VH with T9A, I34M, M48L, V53A, K63R, R72G, S84R, L102I, A104P, F110I
VL: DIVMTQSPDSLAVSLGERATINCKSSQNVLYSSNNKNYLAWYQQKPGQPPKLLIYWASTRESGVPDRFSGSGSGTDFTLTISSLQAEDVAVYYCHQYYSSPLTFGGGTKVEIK
For the molecule B11, the binding result is “binds”.

B12: Run6_Seq1 (antibody, V domains shown)
VH: QVQLVQSGAEVRKPGASVKVSCKASGYTFTRYAIHWVRQAPGQRLEWMGWIKAGNGNTRYSQKFQGRVSIIRDTSASTVYMDLSGLRSEDTAVYYCALLTVITPDDAFDIWGQGTMVTVSS
VL: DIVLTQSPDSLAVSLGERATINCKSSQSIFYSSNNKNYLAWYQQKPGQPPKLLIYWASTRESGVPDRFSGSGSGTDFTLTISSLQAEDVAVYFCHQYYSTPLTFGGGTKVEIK
For B12, the binding result is given as “binds”.

B13: Run6_Seq2 (antibody, V domains shown)
VH: B12 VH with K63N, V79A
VL: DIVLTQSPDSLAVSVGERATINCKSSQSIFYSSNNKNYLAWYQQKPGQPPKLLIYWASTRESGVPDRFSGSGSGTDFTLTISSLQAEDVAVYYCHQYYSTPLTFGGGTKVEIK
Take B13: the binding result is “binds”.

B14: Run3_Seq2 (antibody, V domains shown)
VH: QVQLVQSGAEVRKPGASVKVSCKASGYTFTTYAIHWVRQAPGQRLEWMGWIKGGNGDTRYSQKFQGRLTITRDTFASTAYMELSSLRSEDTAVYYCALLTVVTPDDTFDIWGQGTMVTVSS
VL: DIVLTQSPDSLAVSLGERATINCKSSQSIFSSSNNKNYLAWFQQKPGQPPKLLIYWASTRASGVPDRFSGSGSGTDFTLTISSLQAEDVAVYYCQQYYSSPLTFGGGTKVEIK
On to B14, for which the binding result is reported as “binds”.

B15: SFR6 (antibody, V domains shown)
VH: QVHLVQSGAEVKKPGASVKVSCKASGYTFSSYAIHWVRQAPGQRLDWMGWIKGGNGDTRYSETFQDRVTISRDTSATTVYMELSSLRSEDTAMYFCALLTVIRRDDTFDIWGQGTMVTVSS
VL: DIVLTQSPDSLAVSLGERATINCKSSQNIFFNSNKKNYLAWYQQKPRQPPKLLFYWASTRESGVPDRFSGSGSGTDFTLTISSLQAEDVAVYYCHQFYSTPLTFGGGTKVEIK
Regarding B15, the binding result is “binds”.

B16: SFR1 (antibody, V domains shown)
VH: QVHLVQSGAEVKKPGASVKVSCKASGYTFSRYAIHWVRQAPGQRLEWMGWIKGGNGDTRYSQKFQDRVTITRDTSASTVYMDLSSLRSEDTAVYYCALLTVIRKDDTFDVWGQGTMVTVSS
VL: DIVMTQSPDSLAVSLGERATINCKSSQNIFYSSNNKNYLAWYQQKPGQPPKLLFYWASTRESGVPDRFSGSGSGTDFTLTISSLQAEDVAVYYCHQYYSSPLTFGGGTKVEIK
On to B16, for which the binding result is “binds”.

B17: SFR4 (antibody, V domains shown)
VH: B16 VH with R31T, D66G, D82E, K104L, D106E
VL: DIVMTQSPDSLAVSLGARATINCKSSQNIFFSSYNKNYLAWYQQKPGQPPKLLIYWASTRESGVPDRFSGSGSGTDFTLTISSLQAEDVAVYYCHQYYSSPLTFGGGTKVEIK
As to B17, the binding result was “binds”.

B18: SFR2 (antibody, V domains shown)
VH: B16 VH with D82E, Y95F
VL: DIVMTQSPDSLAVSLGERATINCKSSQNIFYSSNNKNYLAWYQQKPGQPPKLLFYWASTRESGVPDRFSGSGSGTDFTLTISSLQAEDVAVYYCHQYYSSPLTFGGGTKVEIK
For B18, the binding result is listed as “binds”.

The record behind these values is doi:10.1101/2025.09.30.679617 (bioRxiv, 2025).
